± gives the uncertainty stated by the source.
B1: Double-stranded RNA-binding protein Staufen homolog 1, residues 183 to 249; numbered along this chain, O95793 (parent)
chain: KSEISQVFEIALKRNLPVNFEVARESGPPHMKNFVTKVSVGEFVGEGEGKSKKISKKNAAIAVLEEL

Variants of: B1
Test: abundance fitness (aPCA) (normalised: wild type 0, dead -1); higher = more abundant; growth selection in yeast, the domain comes from the species named
Details: Homo sapiens

Variant | abundance fitness
KSEISQVFEIALKRNLPVNFEVARESGPPHMKNFVTKVSVDEFVGEGEGKSKKISKKNAAIAVLEEL | -0.761 ± 0.1
KSEISQVFEIALKRNLPVNFEVARESGPPHMKNFVTKVSVEEFVGEGEGKSKKISKKNAAIAVLEEL | -0.611 ± 0.074
KSEISQVFEIALKRNLPVNFEVARESGPPHMKNFVTKVSVFEFVGEGEGKSKKISKKNAAIAVLEEL | -1.18 ± 0.21
KSEISQVFEIALKRNLPVNFEVARESGPPHMKNFVTKVSVHEFVGEGEGKSKKISKKNAAIAVLEEL | -0.737 ± 0.17
KSEISQVFEIALKRNLPVNFEVARESGPPHMKNFVTKVSVIEFVGEGEGKSKKISKKNAAIAVLEEL | -1.41 ± 0.36
KSEISQVFEIALKRNLPVNFEVARESGPPHMKNFVTKVSVLEFVGEGEGKSKKISKKNAAIAVLEEL | -0.91 ± 0.07
KSEISQVFEIALKRNLPVNFEVARESGPPHMKNFVTKVSVMEFVGEGEGKSKKISKKNAAIAVLEEL | -0.888 ± 0.095
KSEISQVFEIALKRNLPVNFEVARESGPPHMKNFVTKVSVNEFVGEGEGKSKKISKKNAAIAVLEEL | -0.853 ± 0.2
KSEISQVFEIALKRNLPVNFEVARESGPPHMKNFVTKVSVPEFVGEGEGKSKKISKKNAAIAVLEEL | -0.645 ± 0.095
KSEISQVFEIALKRNLPVNFEVARESGPPHMKNFVTKVSVQEFVGEGEGKSKKISKKNAAIAVLEEL | -0.979 ± 0.13
KSEISQVFEIALKRNLPVNFEVARESGPPHMKNFVTKVSVREFVGEGEGKSKKISKKNAAIAVLEEL | -0.941 ± 0.06
KSEISQVFEIALKRNLPVNFEVARESGPPHMKNFVTKVSVSEFVGEGEGKSKKISKKNAAIAVLEEL | -0.945 ± 0.062
KSEISQVFEIALKRNLPVNFEVARESGPPHMKNFVTKVSVTEFVGEGEGKSKKISKKNAAIAVLEEL | -1.17 ± 0.11
KSEISQVFEIALKRNLPVNFEVARESGPPHMKNFVTKVSVWEFVGEGEGKSKKISKKNAAIAVLEEL | -0.825 ± 0.12
KSEISQVFEIALKRNLPVNFEVARESGPPHMKNFVTKVSVYEFVGEGEGKSKKISKKNAAIAVLEEL | -1.13 ± 0.39
KSEISQVFEIALKRNLPVNFEVARESGPPHMKNFVTKVSVGAFVGEGEGKSKKISKKNAAIAVLEEL | 0.016 ± 0.056
KSEISQVFEIALKRNLPVNFEVARESGPPHMKNFVTKVSVGCFVGEGEGKSKKISKKNAAIAVLEEL | -0.161 ± 0.06
KSEISQVFEIALKRNLPVNFEVARESGPPHMKNFVTKVSVGDFVGEGEGKSKKISKKNAAIAVLEEL | -0.137 ± 0.093
KSEISQVFEIALKRNLPVNFEVARESGPPHMKNFVTKVSVGFFVGEGEGKSKKISKKNAAIAVLEEL | -0.355 ± 0.093
KSEISQVFEIALKRNLPVNFEVARESGPPHMKNFVTKVSVGGFVGEGEGKSKKISKKNAAIAVLEEL | 0.011 ± 0.046
KSEISQVFEIALKRNLPVNFEVARESGPPHMKNFVTKVSVGHFVGEGEGKSKKISKKNAAIAVLEEL | 0.014 ± 0.11
KSEISQVFEIALKRNLPVNFEVARESGPPHMKNFVTKVSVGIFVGEGEGKSKKISKKNAAIAVLEEL | -0.407 ± 0.11
KSEISQVFEIALKRNLPVNFEVARESGPPHMKNFVTKVSVGKFVGEGEGKSKKISKKNAAIAVLEEL | -0.046 ± 0.057
KSEISQVFEIALKRNLPVNFEVARESGPPHMKNFVTKVSVGLFVGEGEGKSKKISKKNAAIAVLEEL | -0.255 ± 0.04
KSEISQVFEIALKRNLPVNFEVARESGPPHMKNFVTKVSVGMFVGEGEGKSKKISKKNAAIAVLEEL | -0.1 ± 0.061
KSEISQVFEIALKRNLPVNFEVARESGPPHMKNFVTKVSVGPFVGEGEGKSKKISKKNAAIAVLEEL | 0.053 ± 0.047
KSEISQVFEIALKRNLPVNFEVARESGPPHMKNFVTKVSVGQFVGEGEGKSKKISKKNAAIAVLEEL | -0.05 ± 0.05

Variant | abundance fitness
KSEISQVFEIALKRNLPVNFEVARESGPPHMKNFVTKVSVGRFVGEGEGKSKKISKKNAAIAVLEEL | -0.032 ± 0.033
KSEISQVFEIALKRNLPVNFEVARESGPPHMKNFVTKVSVGSFVGEGEGKSKKISKKNAAIAVLEEL | 0.028 ± 0.045
KSEISQVFEIALKRNLPVNFEVARESGPPHMKNFVTKVSVGTFVGEGEGKSKKISKKNAAIAVLEEL | -0.048 ± 0.051
KSEISQVFEIALKRNLPVNFEVARESGPPHMKNFVTKVSVGWFVGEGEGKSKKISKKNAAIAVLEEL | -0.3 ± 0.044
KSEISQVFEIALKRNLPVNFEVARESGPPHMKNFVTKVSVGYFVGEGEGKSKKISKKNAAIAVLEEL | -0.131 ± 0.12
KSEISQVFEIALKRNLPVNFEVARESGPPHMKNFVTKVSVGEAVGEGEGKSKKISKKNAAIAVLEEL | -0.124 ± 0.047
KSEISQVFEIALKRNLPVNFEVARESGPPHMKNFVTKVSVGECVGEGEGKSKKISKKNAAIAVLEEL | -0.262 ± 0.085
KSEISQVFEIALKRNLPVNFEVARESGPPHMKNFVTKVSVGEDVGEGEGKSKKISKKNAAIAVLEEL | -0.628 ± 0.1
KSEISQVFEIALKRNLPVNFEVARESGPPHMKNFVTKVSVGEEVGEGEGKSKKISKKNAAIAVLEEL | -0.44 ± 0.063
KSEISQVFEIALKRNLPVNFEVARESGPPHMKNFVTKVSVGEGVGEGEGKSKKISKKNAAIAVLEEL | -0.63 ± 0.042
KSEISQVFEIALKRNLPVNFEVARESGPPHMKNFVTKVSVGEHVGEGEGKSKKISKKNAAIAVLEEL | 0.014 ± 0.099
KSEISQVFEIALKRNLPVNFEVARESGPPHMKNFVTKVSVGEIVGEGEGKSKKISKKNAAIAVLEEL | -0.197 ± 0.1
KSEISQVFEIALKRNLPVNFEVARESGPPHMKNFVTKVSVGEKVGEGEGKSKKISKKNAAIAVLEEL | -0.317 ± 0.063
KSEISQVFEIALKRNLPVNFEVARESGPPHMKNFVTKVSVGELVGEGEGKSKKISKKNAAIAVLEEL | -0.126 ± 0.043
KSEISQVFEIALKRNLPVNFEVARESGPPHMKNFVTKVSVGEMVGEGEGKSKKISKKNAAIAVLEEL | -0.255 ± 0.077
KSEISQVFEIALKRNLPVNFEVARESGPPHMKNFVTKVSVGENVGEGEGKSKKISKKNAAIAVLEEL | -0.437 ± 0.13
KSEISQVFEIALKRNLPVNFEVARESGPPHMKNFVTKVSVGEPVGEGEGKSKKISKKNAAIAVLEEL | -0.649 ± 0.087
KSEISQVFEIALKRNLPVNFEVARESGPPHMKNFVTKVSVGERVGEGEGKSKKISKKNAAIAVLEEL | -0.482 ± 0.036
KSEISQVFEIALKRNLPVNFEVARESGPPHMKNFVTKVSVGESVGEGEGKSKKISKKNAAIAVLEEL | -0.272 ± 0.05
KSEISQVFEIALKRNLPVNFEVARESGPPHMKNFVTKVSVGETVGEGEGKSKKISKKNAAIAVLEEL | -0.195 ± 0.058
KSEISQVFEIALKRNLPVNFEVARESGPPHMKNFVTKVSVGEFAGEGEGKSKKISKKNAAIAVLEEL | -0.18 ± 0.044
KSEISQVFEIALKRNLPVNFEVARESGPPHMKNFVTKVSVGEFCGEGEGKSKKISKKNAAIAVLEEL | 0.033 ± 0.1
KSEISQVFEIALKRNLPVNFEVARESGPPHMKNFVTKVSVGEFDGEGEGKSKKISKKNAAIAVLEEL | -0.238 ± 0.073
KSEISQVFEIALKRNLPVNFEVARESGPPHMKNFVTKVSVGEFEGEGEGKSKKISKKNAAIAVLEEL | -0.132 ± 0.058
KSEISQVFEIALKRNLPVNFEVARESGPPHMKNFVTKVSVGEFFGEGEGKSKKISKKNAAIAVLEEL | -0.195 ± 0.15
KSEISQVFEIALKRNLPVNFEVARESGPPHMKNFVTKVSVGEFGGEGEGKSKKISKKNAAIAVLEEL | -0.414 ± 0.04
KSEISQVFEIALKRNLPVNFEVARESGPPHMKNFVTKVSVGEFHGEGEGKSKKISKKNAAIAVLEEL | -0.102 ± 0.15

Variant | abundance fitness
KSEISQVFEIALKRNLPVNFEVARESGPPHMKNFVTKVSVGEFIGEGEGKSKKISKKNAAIAVLEEL | -0.04 ± 0.075
KSEISQVFEIALKRNLPVNFEVARESGPPHMKNFVTKVSVGEFKGEGEGKSKKISKKNAAIAVLEEL | -0.016 ± 0.053
KSEISQVFEIALKRNLPVNFEVARESGPPHMKNFVTKVSVGEFLGEGEGKSKKISKKNAAIAVLEEL | -0.14 ± 0.052
KSEISQVFEIALKRNLPVNFEVARESGPPHMKNFVTKVSVGEFMGEGEGKSKKISKKNAAIAVLEEL | -0.045 ± 0.068
KSEISQVFEIALKRNLPVNFEVARESGPPHMKNFVTKVSVGEFPGEGEGKSKKISKKNAAIAVLEEL | -0.789 ± 0.11
KSEISQVFEIALKRNLPVNFEVARESGPPHMKNFVTKVSVGEFQGEGEGKSKKISKKNAAIAVLEEL | -0.074 ± 0.059
KSEISQVFEIALKRNLPVNFEVARESGPPHMKNFVTKVSVGEFRGEGEGKSKKISKKNAAIAVLEEL | -0.051 ± 0.035
KSEISQVFEIALKRNLPVNFEVARESGPPHMKNFVTKVSVGEFSGEGEGKSKKISKKNAAIAVLEEL | -0.086 ± 0.044
KSEISQVFEIALKRNLPVNFEVARESGPPHMKNFVTKVSVGEFTGEGEGKSKKISKKNAAIAVLEEL | -0.015 ± 0.061
KSEISQVFEIALKRNLPVNFEVARESGPPHMKNFVTKVSVGEFWGEGEGKSKKISKKNAAIAVLEEL | -0.112 ± 0.049
KSEISQVFEIALKRNLPVNFEVARESGPPHMKNFVTKVSVGEFYGEGEGKSKKISKKNAAIAVLEEL | -0.099 ± 0.11
KSEISQVFEIALKRNLPVNFEVARESGPPHMKNFVTKVSVGEFVAEGEGKSKKISKKNAAIAVLEEL | 0.069 ± 0.039
KSEISQVFEIALKRNLPVNFEVARESGPPHMKNFVTKVSVGEFVCEGEGKSKKISKKNAAIAVLEEL | -0.038 ± 0.082
KSEISQVFEIALKRNLPVNFEVARESGPPHMKNFVTKVSVGEFVDEGEGKSKKISKKNAAIAVLEEL | -0.645 ± 0.076
KSEISQVFEIALKRNLPVNFEVARESGPPHMKNFVTKVSVGEFVEEGEGKSKKISKKNAAIAVLEEL | -0.484 ± 0.053
KSEISQVFEIALKRNLPVNFEVARESGPPHMKNFVTKVSVGEFVFEGEGKSKKISKKNAAIAVLEEL | -0.373 ± 0.075
KSEISQVFEIALKRNLPVNFEVARESGPPHMKNFVTKVSVGEFVHEGEGKSKKISKKNAAIAVLEEL | -0.619 ± 0.15
KSEISQVFEIALKRNLPVNFEVARESGPPHMKNFVTKVSVGEFVIEGEGKSKKISKKNAAIAVLEEL | -0.487 ± 0.089
KSEISQVFEIALKRNLPVNFEVARESGPPHMKNFVTKVSVGEFVKEGEGKSKKISKKNAAIAVLEEL | -0.108 ± 0.051
KSEISQVFEIALKRNLPVNFEVARESGPPHMKNFVTKVSVGEFVLEGEGKSKKISKKNAAIAVLEEL | -0.591 ± 0.047
KSEISQVFEIALKRNLPVNFEVARESGPPHMKNFVTKVSVGEFVMEGEGKSKKISKKNAAIAVLEEL | -0.585 ± 0.072
KSEISQVFEIALKRNLPVNFEVARESGPPHMKNFVTKVSVGEFVNEGEGKSKKISKKNAAIAVLEEL | -0.594 ± 0.12
KSEISQVFEIALKRNLPVNFEVARESGPPHMKNFVTKVSVGEFVPEGEGKSKKISKKNAAIAVLEEL | -0.975 ± 0.076
KSEISQVFEIALKRNLPVNFEVARESGPPHMKNFVTKVSVGEFVQEGEGKSKKISKKNAAIAVLEEL | -0.395 ± 0.066
KSEISQVFEIALKRNLPVNFEVARESGPPHMKNFVTKVSVGEFVREGEGKSKKISKKNAAIAVLEEL | -0.265 ± 0.04
KSEISQVFEIALKRNLPVNFEVARESGPPHMKNFVTKVSVGEFVSEGEGKSKKISKKNAAIAVLEEL | -0.146 ± 0.04
